T1: human FcγRIIb extracellular domain with C-terminal His tag (human, UniProt P31994 43-217)
T1 construct: extracellular domain; also called FcgRIIb; 2b; not shown: His tag attached to the C terminus
T1 sequence (looked up): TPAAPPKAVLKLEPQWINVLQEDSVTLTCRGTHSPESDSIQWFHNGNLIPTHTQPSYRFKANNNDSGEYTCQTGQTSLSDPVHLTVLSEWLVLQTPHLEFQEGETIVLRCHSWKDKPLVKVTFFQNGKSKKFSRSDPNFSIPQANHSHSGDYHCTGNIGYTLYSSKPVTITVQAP

B1: GpH7-A5/GpH7-B3 variant K334_15Y/GpL16-k0 (He Ab) (antibody, human IgG1, kappa)
heavy 1: not shown
heavy 2: not shown
light: DIVMTQSPLSLPVTPGEPASISCQASESLVHSNRNTYLHWYLQKPGQSPQLLIYKVSNRFSGVPDRFSGSGSGTDFTLKISRVEAEDVGVYYCSQNTHVPPTFGQGTKVEIERTVAAPSVFIFPPSDEQLKSGTASVVCLLNNFYPREAKVQWKVDNALQSGNSQESVTEQDSKDSTYSLSSTLTLSKADYEKHKVYACEVTHQGLSSPVTKSFNRGEC
notes: Anti-glypican-3 IgG1; mutation only in the GpH7-B3-derived H chain; also called K334Y heterodimerized antibody
B2: GpH7-A5/GpH7-B3 variant S267_07I/GpL16-k0 (He Ab) (antibody, human IgG1, kappa)
heavy 1: not shown
heavy 2: not shown
light: B1 light
notes: Anti-glypican-3 IgG1; mutation only in the GpH7-B3-derived H chain; also called S267I heterodimerized antibody
B3: GpH7-A5/GpH7-B3 variant P238_08L/GpL16-k0 (He Ab) (antibody, human IgG1, kappa)
heavy 1: not shown
heavy 2: not shown
light: B1 light
notes: Anti-glypican-3 IgG1; mutation only in the GpH7-B3-derived H chain; also called P238L heterodimerized antibody
B4: GpH7-B3 variant P238_08L/GpL16-k0 (Ho Ab) (antibody, human IgG1, kappa)
heavy: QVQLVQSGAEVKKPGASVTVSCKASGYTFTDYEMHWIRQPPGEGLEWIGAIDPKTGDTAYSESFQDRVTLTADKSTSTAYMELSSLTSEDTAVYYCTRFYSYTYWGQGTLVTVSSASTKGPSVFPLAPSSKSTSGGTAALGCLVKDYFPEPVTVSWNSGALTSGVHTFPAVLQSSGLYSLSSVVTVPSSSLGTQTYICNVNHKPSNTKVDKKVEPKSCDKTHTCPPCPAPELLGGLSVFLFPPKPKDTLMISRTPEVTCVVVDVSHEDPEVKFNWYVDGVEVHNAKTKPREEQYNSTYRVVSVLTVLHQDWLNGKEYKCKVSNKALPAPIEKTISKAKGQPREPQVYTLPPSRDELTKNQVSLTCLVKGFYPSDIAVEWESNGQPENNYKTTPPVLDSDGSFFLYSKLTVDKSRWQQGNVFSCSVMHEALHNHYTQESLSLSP
light: B1 light
notes: Anti-glypican-3 IgG1; mutation in both H chains; also called P238L homodimerized antibody
B5: GpH7-B3 variant S267_08L/GpL16-k0 (Ho Ab) (antibody, human IgG1, kappa)
heavy: not shown
light: B1 light
notes: Anti-glypican-3 IgG1; mutation in both H chains; also called S267L homodimerized antibody
B6: GpH7-B3 variant L328_14T/GpL16-k0 (Ho Ab) (antibody, human IgG1, kappa)
heavy: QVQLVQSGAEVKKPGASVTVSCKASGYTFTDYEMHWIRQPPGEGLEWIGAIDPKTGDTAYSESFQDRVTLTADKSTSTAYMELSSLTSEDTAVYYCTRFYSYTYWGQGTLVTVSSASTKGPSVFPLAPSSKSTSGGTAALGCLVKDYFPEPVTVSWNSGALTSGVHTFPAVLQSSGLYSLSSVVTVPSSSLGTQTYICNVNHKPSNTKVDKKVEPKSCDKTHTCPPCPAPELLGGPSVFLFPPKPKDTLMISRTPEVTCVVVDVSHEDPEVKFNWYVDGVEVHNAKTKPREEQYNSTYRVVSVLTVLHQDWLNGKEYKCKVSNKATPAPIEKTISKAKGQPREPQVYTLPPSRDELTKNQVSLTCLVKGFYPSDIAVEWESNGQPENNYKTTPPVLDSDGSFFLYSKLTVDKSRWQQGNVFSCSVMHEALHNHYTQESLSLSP
light: B1 light
notes: Anti-glypican-3 IgG1; mutation in both H chains; also called L328T homodimerized antibody
B7: GpH7-A5/GpH7-B3 variant L328_07I/GpL16-k0 (He Ab) (antibody, human IgG1, kappa)
heavy 1: not shown
heavy 2: not shown
light: B1 light
notes: Anti-glypican-3 IgG1; mutation only in the GpH7-B3-derived H chain; also called L328I heterodimerized antibody
B8: GpH7-B3 variant S239_01G/GpL16-k0 (Ho Ab) (antibody, human IgG1, kappa)
heavy: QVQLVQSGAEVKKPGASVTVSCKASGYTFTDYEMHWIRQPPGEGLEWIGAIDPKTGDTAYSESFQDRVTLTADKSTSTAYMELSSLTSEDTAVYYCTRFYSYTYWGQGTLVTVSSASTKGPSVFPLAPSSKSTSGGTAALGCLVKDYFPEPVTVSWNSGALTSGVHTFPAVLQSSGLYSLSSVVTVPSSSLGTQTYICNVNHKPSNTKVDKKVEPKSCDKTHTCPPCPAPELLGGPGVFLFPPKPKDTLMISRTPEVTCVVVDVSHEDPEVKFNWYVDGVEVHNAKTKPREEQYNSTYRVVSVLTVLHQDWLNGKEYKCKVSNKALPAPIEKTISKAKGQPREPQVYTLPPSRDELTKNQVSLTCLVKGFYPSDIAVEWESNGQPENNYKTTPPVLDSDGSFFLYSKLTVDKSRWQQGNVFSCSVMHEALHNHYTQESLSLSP
light: B1 light
notes: Anti-glypican-3 IgG1; mutation in both H chains; also called S239G homodimerized antibody
B9: GpH7-B3 variant S298_08L/GpL16-k0 (Ho Ab) (antibody, human IgG1, kappa)
heavy: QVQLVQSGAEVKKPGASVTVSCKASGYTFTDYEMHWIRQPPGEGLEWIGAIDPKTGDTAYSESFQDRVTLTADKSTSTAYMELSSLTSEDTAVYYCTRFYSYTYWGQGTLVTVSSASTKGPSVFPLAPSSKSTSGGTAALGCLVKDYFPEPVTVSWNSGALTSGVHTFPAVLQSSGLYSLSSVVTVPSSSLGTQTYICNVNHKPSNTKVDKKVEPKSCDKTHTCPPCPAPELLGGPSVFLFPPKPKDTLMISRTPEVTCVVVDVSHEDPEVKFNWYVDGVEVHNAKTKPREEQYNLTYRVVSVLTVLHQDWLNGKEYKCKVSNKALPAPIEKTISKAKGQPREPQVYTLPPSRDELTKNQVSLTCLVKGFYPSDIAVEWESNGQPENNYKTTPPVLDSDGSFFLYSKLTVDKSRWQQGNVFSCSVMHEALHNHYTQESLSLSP
light: B1 light
notes: Anti-glypican-3 IgG1; mutation in both H chains; also called S298L homodimerized antibody
B10: GpH7-B3 variant T335_09D/GpL16-k0 (Ho Ab) (antibody, human IgG1, kappa)
heavy: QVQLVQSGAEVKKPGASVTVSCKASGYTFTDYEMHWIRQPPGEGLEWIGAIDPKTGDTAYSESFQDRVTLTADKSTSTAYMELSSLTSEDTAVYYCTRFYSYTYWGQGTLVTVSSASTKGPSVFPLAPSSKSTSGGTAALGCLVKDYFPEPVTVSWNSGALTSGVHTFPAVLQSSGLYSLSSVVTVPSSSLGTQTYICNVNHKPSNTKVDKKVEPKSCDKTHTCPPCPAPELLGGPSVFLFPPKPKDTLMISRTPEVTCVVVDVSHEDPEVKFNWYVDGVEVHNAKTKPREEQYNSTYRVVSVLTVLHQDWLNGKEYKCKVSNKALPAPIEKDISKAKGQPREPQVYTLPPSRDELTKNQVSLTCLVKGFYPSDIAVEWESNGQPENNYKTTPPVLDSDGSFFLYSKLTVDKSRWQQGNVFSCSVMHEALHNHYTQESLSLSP
light: B1 light
notes: Anti-glypican-3 IgG1; mutation in both H chains; also called T335D homodimerized antibody
B11: GpH7-B3 variant S239_07I/GpL16-k0 (Ho Ab) (antibody, human IgG1, kappa)
heavy: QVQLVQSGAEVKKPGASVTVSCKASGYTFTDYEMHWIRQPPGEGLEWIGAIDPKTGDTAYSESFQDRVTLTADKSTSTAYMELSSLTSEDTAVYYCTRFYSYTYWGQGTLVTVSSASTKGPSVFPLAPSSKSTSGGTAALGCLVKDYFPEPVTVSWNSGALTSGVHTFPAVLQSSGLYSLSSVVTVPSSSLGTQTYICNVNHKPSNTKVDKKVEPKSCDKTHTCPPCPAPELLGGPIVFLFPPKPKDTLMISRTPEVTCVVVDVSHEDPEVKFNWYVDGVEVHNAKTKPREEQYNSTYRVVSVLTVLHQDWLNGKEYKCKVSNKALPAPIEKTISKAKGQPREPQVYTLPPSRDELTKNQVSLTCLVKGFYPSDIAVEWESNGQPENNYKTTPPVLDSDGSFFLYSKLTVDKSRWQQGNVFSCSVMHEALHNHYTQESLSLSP
light: B1 light
notes: Anti-glypican-3 IgG1; mutation in both H chains; also called S239I homodimerized antibody
B12: GpH7-B3 variant S267_14T/GpL16-k0 (Ho Ab) (antibody, human IgG1, kappa)
heavy: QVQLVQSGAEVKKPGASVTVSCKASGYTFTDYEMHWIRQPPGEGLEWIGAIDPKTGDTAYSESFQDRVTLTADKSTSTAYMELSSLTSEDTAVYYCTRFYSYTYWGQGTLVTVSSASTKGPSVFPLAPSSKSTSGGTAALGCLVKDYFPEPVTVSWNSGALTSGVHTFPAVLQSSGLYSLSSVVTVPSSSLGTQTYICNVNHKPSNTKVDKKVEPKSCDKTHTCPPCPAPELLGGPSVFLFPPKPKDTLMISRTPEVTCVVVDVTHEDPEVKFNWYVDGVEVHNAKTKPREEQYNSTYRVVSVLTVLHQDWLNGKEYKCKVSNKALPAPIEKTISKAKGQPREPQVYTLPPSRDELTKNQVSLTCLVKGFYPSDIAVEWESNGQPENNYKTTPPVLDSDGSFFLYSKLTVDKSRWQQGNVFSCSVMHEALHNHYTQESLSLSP
light: B1 light
notes: Anti-glypican-3 IgG1; mutation in both H chains; also called S267T homodimerized antibody
B13: GpH7-A5/GpH7-B3 variant S239_08L/GpL16-k0 (He Ab) (antibody, human IgG1, kappa)
heavy 1: not shown
heavy 2: not shown
light: B1 light
notes: Anti-glypican-3 IgG1; mutation only in the GpH7-B3-derived H chain; also called S239L heterodimerized antibody
B14: GpH7-B3 variant S267_02A/GpL16-k0 (Ho Ab) (antibody, human IgG1, kappa)
heavy: not shown
light: B1 light
notes: Anti-glypican-3 IgG1; mutation in both H chains; also called S267A homodimerized antibody
B15: GpH7-A5/GpH7-B3 variant P271_01G/GpL16-k0 (He Ab) (antibody, human IgG1, kappa)
heavy 1: not shown
heavy 2: not shown
light: B1 light
notes: Anti-glypican-3 IgG1; mutation only in the GpH7-B3-derived H chain; also called P271G heterodimerized antibody
B16: GpH7-A5/GpH7-B3 variant S267_02A/GpL16-k0 (He Ab) (antibody, human IgG1, kappa)
heavy 1: not shown
heavy 2: not shown
light: B1 light
notes: Anti-glypican-3 IgG1; mutation only in the GpH7-B3-derived H chain; also called S267A heterodimerized antibody
B17: GpH7-B3 variant S239_08L/GpL16-k0 (Ho Ab) (antibody, human IgG1, kappa)
heavy: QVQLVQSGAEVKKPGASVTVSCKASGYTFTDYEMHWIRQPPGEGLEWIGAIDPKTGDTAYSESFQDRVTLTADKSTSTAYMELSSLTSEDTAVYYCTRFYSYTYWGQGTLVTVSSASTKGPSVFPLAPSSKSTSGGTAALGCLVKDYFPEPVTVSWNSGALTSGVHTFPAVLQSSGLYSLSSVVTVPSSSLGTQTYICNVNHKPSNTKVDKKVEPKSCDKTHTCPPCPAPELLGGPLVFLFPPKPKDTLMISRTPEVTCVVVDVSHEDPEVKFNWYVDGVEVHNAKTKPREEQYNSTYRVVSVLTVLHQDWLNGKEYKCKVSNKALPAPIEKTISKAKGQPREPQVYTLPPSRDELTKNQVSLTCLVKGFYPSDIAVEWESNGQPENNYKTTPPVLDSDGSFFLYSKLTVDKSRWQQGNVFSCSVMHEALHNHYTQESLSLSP
light: B1 light
notes: Anti-glypican-3 IgG1; mutation in both H chains; also called S239L homodimerized antibody
B18: GpH7-B3 variant Y300_19Q/GpL16-k0 (Ho Ab) (antibody, human IgG1, kappa)
heavy: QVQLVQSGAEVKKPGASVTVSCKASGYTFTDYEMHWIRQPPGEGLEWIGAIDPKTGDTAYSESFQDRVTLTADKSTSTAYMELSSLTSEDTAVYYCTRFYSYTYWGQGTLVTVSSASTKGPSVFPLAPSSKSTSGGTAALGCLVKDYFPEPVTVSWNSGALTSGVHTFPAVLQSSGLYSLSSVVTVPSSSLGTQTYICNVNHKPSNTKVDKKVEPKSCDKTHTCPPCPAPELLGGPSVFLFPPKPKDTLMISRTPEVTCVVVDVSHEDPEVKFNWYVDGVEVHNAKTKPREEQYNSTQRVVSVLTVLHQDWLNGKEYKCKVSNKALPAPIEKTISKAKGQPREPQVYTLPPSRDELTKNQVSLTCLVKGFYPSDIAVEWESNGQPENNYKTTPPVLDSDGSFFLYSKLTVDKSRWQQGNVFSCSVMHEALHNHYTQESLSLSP
light: B1 light
notes: Anti-glypican-3 IgG1; mutation in both H chains; also called Y300Q homodimerized antibody
B19: GpH7-B3 variant L328_19Q/GpL16-k0 (Ho Ab) (antibody, human IgG1, kappa)
heavy: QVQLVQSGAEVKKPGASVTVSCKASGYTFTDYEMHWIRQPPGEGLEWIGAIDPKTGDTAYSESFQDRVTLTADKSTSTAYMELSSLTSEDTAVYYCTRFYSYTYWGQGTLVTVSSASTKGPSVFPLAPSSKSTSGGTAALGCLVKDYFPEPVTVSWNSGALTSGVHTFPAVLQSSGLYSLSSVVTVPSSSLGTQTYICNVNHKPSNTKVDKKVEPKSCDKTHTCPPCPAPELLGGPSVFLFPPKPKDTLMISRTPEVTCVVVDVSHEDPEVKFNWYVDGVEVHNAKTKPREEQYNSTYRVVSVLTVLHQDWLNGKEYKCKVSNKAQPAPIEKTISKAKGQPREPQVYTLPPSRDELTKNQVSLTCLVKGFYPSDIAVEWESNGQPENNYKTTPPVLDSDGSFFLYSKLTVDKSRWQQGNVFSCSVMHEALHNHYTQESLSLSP
light: B1 light
notes: Anti-glypican-3 IgG1; mutation in both H chains; also called L328Q homodimerized antibody
B20: GpH7-A5/GpH7-B3 variant S267_10E/GpL16-k0 (He Ab) (antibody, human IgG1, kappa)
heavy 1: not shown
heavy 2: not shown
light: B1 light
notes: Anti-glypican-3 IgG1; mutation only in the GpH7-B3-derived H chain; also called S267E heterodimerized antibody
B21: GpH7-A5/GpH7-B3 variant K334_16H/GpL16-k0 (He Ab) (antibody, human IgG1, kappa)
heavy 1: not shown
heavy 2: not shown
light: B1 light
notes: Anti-glypican-3 IgG1; mutation only in the GpH7-B3-derived H chain; also called K334H heterodimerized antibody
B22: GpH7-B3 variant P331_04F/GpL16-k0 (Ho Ab) (antibody, human IgG1, kappa)
heavy: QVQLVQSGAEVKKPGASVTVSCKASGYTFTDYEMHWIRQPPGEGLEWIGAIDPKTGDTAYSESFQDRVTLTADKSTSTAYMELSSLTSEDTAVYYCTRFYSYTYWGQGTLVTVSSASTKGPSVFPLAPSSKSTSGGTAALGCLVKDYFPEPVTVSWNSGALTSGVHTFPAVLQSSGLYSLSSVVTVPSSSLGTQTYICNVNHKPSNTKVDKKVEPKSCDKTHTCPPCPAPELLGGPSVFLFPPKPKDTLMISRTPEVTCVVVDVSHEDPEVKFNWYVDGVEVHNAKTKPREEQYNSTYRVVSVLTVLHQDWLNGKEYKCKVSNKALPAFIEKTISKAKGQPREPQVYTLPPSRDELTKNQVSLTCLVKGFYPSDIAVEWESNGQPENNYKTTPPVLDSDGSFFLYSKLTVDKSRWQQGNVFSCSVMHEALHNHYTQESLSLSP
light: B1 light
notes: Anti-glypican-3 IgG1; mutation in both H chains; also called P331F homodimerized antibody
B23: GpH7-A5/GpH7-B3 variant S239_18N/GpL16-k0 (He Ab) (antibody, human IgG1, kappa)
heavy 1: not shown
heavy 2: not shown
light: B1 light
notes: Anti-glypican-3 IgG1; mutation only in the GpH7-B3-derived H chain; also called S239N heterodimerized antibody
B24: GpH7-A5/GpH7-B3 variant L328_06M/GpL16-k0 (He Ab) (antibody, human IgG1, kappa)
heavy 1: not shown
heavy 2: not shown
light: B1 light
notes: Anti-glypican-3 IgG1; mutation only in the GpH7-B3-derived H chain; also called L328M heterodimerized antibody
B25: GpH7-A5/GpH7-B3 variant S239_07I/GpL16-k0 (He Ab) (antibody, human IgG1, kappa)
heavy 1: not shown
heavy 2: not shown
light: B1 light
notes: Anti-glypican-3 IgG1; mutation only in the GpH7-B3-derived H chain; also called S239I heterodimerized antibody
B26: GpH7-B3 variant T335_04F/GpL16-k0 (Ho Ab) (antibody, human IgG1, kappa)
heavy: not shown
light: B1 light
notes: Anti-glypican-3 IgG1; mutation in both H chains; also called T335F homodimerized antibody
B27: GpH7-A5/GpH7-B3 variant L328_14T/GpL16-k0 (He Ab) (antibody, human IgG1, kappa)
heavy 1: not shown
heavy 2: not shown
light: B1 light
notes: Anti-glypican-3 IgG1; mutation only in the GpH7-B3-derived H chain; also called L328T heterodimerized antibody
B28: GpH7-A5/GpH7-B3 variant K334_19Q/GpL16-k0 (He Ab) (antibody, human IgG1, kappa)
heavy 1: not shown
heavy 2: not shown
light: B1 light
notes: Anti-glypican-3 IgG1; mutation only in the GpH7-B3-derived H chain; also called K334Q heterodimerized antibody

Molecular target: T1, human FcγRIIb extracellular domain with …
Assay: SPR (Biacore T100), antibody captured on antigen peptide chip, FcγRIIb as analyte; relative binding
Procedure: Analysis of interaction between objective antibody and the FcγR was carried out using Biacore T100 (GE Healthcare). HBS-EP+ (GE Healthcare) was used as the running buffer, and the measurement temperature was set to 25° C. Chips produced by immobilizing the antigen peptide by the amine coupling method to a Series S Sencor Chip CM5 (GE Healthcare), or alternatively, chips produced by allowing preliminarily biotinylated antigen peptides to interact with and immobilize onto a Series S Sensor Chip SA (certified) (GE Healthcare) were used. Antibodies of interest were captured onto an antigen peptide-immobilized chip, and allowed to interact to each FcγR diluted with running buffer. To regenerate and repeatedly use the chip, the antibodies captured on the chip were washed off by reacting 10 mM glycine-HCl, pH 1.5.

| He/Con_2b | Ho/Con_2b | Binder |
| --- | --- | --- |
| 109 % of control GpH7-A5/GpH7-B3/GpL16-k0 (=100) | – | B1 |
| 192 % of control GpH7-A5/GpH7-B3/GpL16-k0 (=100) | – | B2 |
| 204 % of control GpH7-A5/GpH7-B3/GpL16-k0 (=100) | – | B3 |
| – | 235 % of control GpH7-B3/GpL16-k0 (=100) | B4 |
| – | 109 % of control GpH7-B3/GpL16-k0 (=100) | B5 |
| – | 146 % of control GpH7-B3/GpL16-k0 (=100) | B6 |
| 160 % of control GpH7-A5/GpH7-B3/GpL16-k0 (=100) | – | B7 |
| – | 174 % of control GpH7-B3/GpL16-k0 (=100) | B8 |
| – | 115 % of control GpH7-B3/GpL16-k0 (=100) | B9 |
| – | 116 % of control GpH7-B3/GpL16-k0 (=100) | B10 |
| – | 108 % of control GpH7-B3/GpL16-k0 (=100) | B11 |
| – | 106 % of control GpH7-B3/GpL16-k0 (=100) | B12 |
| 140 % of control GpH7-A5/GpH7-B3/GpL16-k0 (=100) | – | B13 |
| – | 274 % of control GpH7-B3/GpL16-k0 (=100) | B14 |
| 193 % of control GpH7-A5/GpH7-B3/GpL16-k0 (=100) | – | B15 |
| 243 % of control GpH7-A5/GpH7-B3/GpL16-k0 (=100) | – | B16 |
| – | 142 % of control GpH7-B3/GpL16-k0 (=100) | B17 |
| – | 124 % of control GpH7-B3/GpL16-k0 (=100) | B18 |
| – | 111 % of control GpH7-B3/GpL16-k0 (=100) | B19 |
| 379 % of control GpH7-A5/GpH7-B3/GpL16-k0 (=100) | – | B20 |
| 113 % of control GpH7-A5/GpH7-B3/GpL16-k0 (=100) | – | B21 |
| – | 113 % of control GpH7-B3/GpL16-k0 (=100) | B22 |
| 119 % of control GpH7-A5/GpH7-B3/GpL16-k0 (=100) | – | B23 |
| 142 % of control GpH7-A5/GpH7-B3/GpL16-k0 (=100) | – | B24 |
| 107 % of control GpH7-A5/GpH7-B3/GpL16-k0 (=100) | – | B25 |
| – | 107 % of control GpH7-B3/GpL16-k0 (=100) | B26 |
| 141 % of control GpH7-A5/GpH7-B3/GpL16-k0 (=100) | – | B27 |
| 109 % of control GpH7-A5/GpH7-B3/GpL16-k0 (=100) | – | B28 |
